Test results reported in paper PMC8178393.

Biological target: pyruvate kinase isozyme M2 (mouse (endogenous in splenic CD4+ T cells polarized into Th17 cells)) (UniProt P52480)
Assay: cross-linking; Th17 cells treated with or without HCA for 24 h; cells washed with ice-cold PBS pH 8.0, disuccinimidyl suberate at 1 uM for 30 min at room temperature, quenched with 10 mM Tris, lysed, Western blot for monomeric and tetrameric PKM2

Chain of pyruvate kinase isozyme M2, P52480 1-531 (enzyme; other documents disagree on this pair) (P52480 whole entry): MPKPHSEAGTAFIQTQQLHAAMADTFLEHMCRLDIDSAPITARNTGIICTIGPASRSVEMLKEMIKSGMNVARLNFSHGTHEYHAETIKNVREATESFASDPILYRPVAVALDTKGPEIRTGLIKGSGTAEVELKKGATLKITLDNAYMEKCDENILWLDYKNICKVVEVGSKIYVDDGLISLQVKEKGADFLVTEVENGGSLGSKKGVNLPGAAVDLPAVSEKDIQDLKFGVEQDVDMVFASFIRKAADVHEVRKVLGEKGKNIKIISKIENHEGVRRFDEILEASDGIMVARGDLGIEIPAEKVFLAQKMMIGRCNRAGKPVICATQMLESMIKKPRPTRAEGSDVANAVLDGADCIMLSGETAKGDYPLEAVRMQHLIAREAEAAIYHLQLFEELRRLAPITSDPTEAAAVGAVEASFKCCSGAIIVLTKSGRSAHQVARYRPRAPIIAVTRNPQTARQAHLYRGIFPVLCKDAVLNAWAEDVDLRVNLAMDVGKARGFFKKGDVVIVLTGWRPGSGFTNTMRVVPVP

Substance: pyruvate kinase isozyme M2, P52480 1-531 (enzyme; other documents disagree on this pair)
- stoichiometry N: 4
